For data set [1], the system named is phosphatidylcholine (PC) liposomes. The data set is described as follows: Yeast proteome chip probed with PC liposomes. The note with it: liposome binding signal on yeast proteome chip, Cy3-streptavidin detection. An excerpt:
(§1) To identify PI-binding proteins in yeast, liposomes were used as probes because the liposome provides the most relevant physiological condition to assay the interactors. Six types of liposomes were used. Each contains phosphatidylcholine (“PC”) with 1% (w/w) N-(biotinoyl)-1,2-dihexadecanoyl-sn-glycero-3-phosphoethanolamine, triethylammonium salt (biotin DHPE). The biotinylated lipid serves as a label that can be detected by Cy3-streptavidin (21). In addition to PC, the five other liposomes contain either 5% (w/w) PI(3)P, PI(4)P, PI(3,4)P2, PI(4,5)P2, or PI(3,4,5)P3 (FIG. 3A).
(§2) The protein-liposome interaction was assayed as follows. Appropriate amounts of each lipid in chloroform were mixed and dried under nitrogen. The lipid mixture was resuspended in TBS buffer by vortexing. The liposomes were created by sonication. Blocked proteome chips were washed three to five times in PBS buffer, and the extra liquid on the glass surface was removed by tapping the slides vertically on a KIMWIPE™. 200 μl of liposome solution was added to the proteome chip and immediately covered by a hydrophobic plastic cover slip (GRACE BIO-LAB™, USA). After trapped air bubbles were removed, the chip was incubated in a humidity chamber at RT for one hour. To remove the cover slip, the chip was immersed into large volume of PBS buffer (50 ml), so that the slip would float away. The chip was then moved to a second PBS bath (>50 ml) and washed 3×5 min with shaking at RT. After removing extra liquid on the surface of the chip, about 100 μl of Cy3 or Cy5 conjugated streptavidin (PIERCE™, USA; 1:2000 to 1:4000 dilution) was added to the surface and covered by a hydrophobic plastic cover slip (GRACE BIO-LABS™, USA). The chip was incubated for greater than 30 min in the dark at RT. The chip was then washed as described above. To completely remove the liquid on the chip, the chip was spun to dryness at 1500-2000 rpm for 5-10 min at RT.
(§3) • 1. S. Fields, Y. Kohara, D. J. Lockhart, Proc. Natl. Acad. Sci. 96, 8825 (1999); A. Goffeau et al., Science 274, 563 (1996). • 2 P. Ross-Macdonald et al., Nature 402, 413 (1999); J. L., DeRisi, V. R. Iyer, P. O. Brown, Science 278, 680 (1997); E. A. Winzeler et al., Science 285, 901 (1999). P. Uetz et al., Nature 403, 623 (2000); T. Ito et al., Proc. Natl. Acad. Sci. USA. 97, 1143 (2000) • 3 H. Zhu, M. Snyder, Curr. Opin. Chem. Biol. 5, 40 (2001). • 4 M. R. Martzen et al., Science 286, 1153 (1999). • 5 H. Zhu et al., Nat. Genet. 26, 283 (2000). • 6 G. MacBeath, S. L. Schreiber, Science 289, 1760 (2000). • 7 A. Caveman, J. Cell Sci. 113, 3543 (2000). • 8 P. Arenkov et al., Anal. Biochem 278, 123 (2000). • 9 D. A. Mitchell, T. K. Marshall, R. J. Deschenes, Yeast 9, 715 (1993). The expression vector pEGH was created by inserting an RGS-HisX6 epitope tag between the GST gene and the polycloning site of pEG(KG). The yeast ORFs were cloned using the strategy described previously (5), except every step was done in a 96-well format. Plasmid DNAs confirmed by DNA sequencing were reintroduced into both yeast (Y258) and E. coli (DH5a). […] 0.1 mM calcium was present in buffers in all subsequent steps. The chip was washed three times with PBS at RT. Cy3-conjugated streptavidin (Jackson IR, USA) (1:5000 dilution) was added to the chip and incubated for 30 min at RT. After extensive washing, the chip was spun dry and scanned using a microarray scanner; the data was subsequently acquired with the GENEPIX™ array densitometry software (Axon, USA). • 12 S. S. Hook, A. R. Means, Annu. Rev. […]

Another data set has as its system PI(4,5)P2 liposomes. The data set is described as follows: Yeast proteome chip probed with PI(4,5)P2 liposomes. The note with it: liposome binding signal on yeast proteome chip, Cy3-streptavidin detection.
Description: as §1, §2
(§4) • 1. S. Fields, Y. Kohara, D. J. Lockhart, Proc. Natl. Acad. Sci. 96, 8825 (1999); A. Goffeau et al., Science 274, 563 (1996). • 2 P. Ross-Macdonald et al., Nature 402, 413 (1999); J. L., DeRisi, V. R. Iyer, P. O. Brown, Science 278, 680 (1997); E. A. Winzeler et al., Science 285, 901 (1999). P. Uetz et al., Nature 403, 623 (2000); T. Ito et al., Proc. Natl. Acad. Sci. USA. 97, 1143 (2000) • 3 H. Zhu, M. Snyder, Curr. Opin. Chem. Biol. 5, 40 (2001). • 4 M. R. Martzen et al., Science 286, 1153 (1999). • 5 H. Zhu et al., Nat. Genet. 26, 283 (2000). • 6 G. MacBeath, S. L. Schreiber, Science 289, 1760 (2000). • 7 A. Caveman, J. Cell Sci. 113, 3543 (2000). • 8 P. Arenkov et al., Anal. Biochem 278, 123 (2000). • 9 D. A. Mitchell, T. K. Marshall, R. J. Deschenes, Yeast 9, 715 (1993). The expression vector pEGH was created by inserting an RGS-HisX6 epitope tag between the GST gene and the polycloning site of pEG(KG). The yeast ORFs were cloned using the strategy described previously (5), except every step was done in a 96-well format. Plasmid DNAs confirmed by DNA sequencing were reintroduced into both yeast (Y258) and E. coli (DH5a). […] 0.1 mM calcium was present in buffers in all subsequent steps. The chip was washed three times with PBS at RT. Cy3-conjugated streptavidin (Jackson IR, USA) (1:5000 dilution) was added to the chip and incubated for 30 min at RT. After extensive washing, the chip was spun dry and scanned using a microarray scanner; the data was subsequently acquired with the GENEPIX™ array densitometry software (Axon, USA). • 12 S. S. Hook, A. R. Means, Annu. Rev. Pharmacol. Toxicol.41, 471 (2001). • 13 M. S. Cyert, R. Kunisawa, D. Kaim, J. Thorner, Proc. Natl. Acad. Sci. USA 88, 7376 (1991). • 14 D. A. Stirling, K. A. Welch, M. J. Stark, EMBO J. 13, 4329 (1994). • 15 F. Bohl, Kruse, EMBO J. 19, 5514 (2000); E. Bertrand et al., Mol. Cell 2, 437 (1998). • 16 D. C. Winter, E. Y. Choe, R. Li, Proc. Nat. Acad Sci. USA 96, 7288 (1999). • 17 C.

In a further data set the test system is PI(3,4)P2 liposomes. Nature of the data set: Yeast proteome chip probed with PI(3,4)P2 liposomes. The note with it: liposome binding signal on yeast proteome chip, Cy3-streptavidin detection.
Description: as §1, §2, §4

The next data set has as its system PI(3,4,5)P3 liposomes. The data set is described as follows: Yeast proteome chip probed with PI(3,4,5)P3 liposomes. The note with it: liposome binding signal on yeast proteome chip, Cy3-streptavidin detection.
Description: as §1, §2, §4

The next data set relates to PI(4)P liposomes. Nature of the data set: Yeast proteome chip probed with PI(4)P liposomes. The note with it: liposome binding signal on yeast proteome chip, Cy3-streptavidin detection.
Description: as §1, §2, §3

A further data set deals with PI(3)P liposomes. Nature of the data set: Yeast proteome chip probed with PI(3)P liposomes. The note with it: liposome binding signal on yeast proteome chip, Cy3-streptavidin detection.
Description: as §1
The protein-liposome interaction was assayed as follows. Appropriate amounts of each lipid in chloroform were mixed and dried under nitrogen. The lipid mixture was resuspended in TBS buffer by vortexing. The liposomes were created by sonication. Blocked proteome chips were washed three to five times in PBS buffer, and the extra liquid on the glass surface was removed by tapping the slides vertically on a KIMWIPE™. 200 μl of liposome solution was added to the proteome chip and immediately covered by a hydrophobic plastic cover slip (GRACE BIO-LAB™, USA). After trapped air bubbles were removed, the chip was incubated in a humidity chamber at RT for one hour. To remove the cover slip, the chip was immersed into large volume of PBS buffer (50 ml), so that the slip would float away. […]

The next data set relates to six different liposomes. Nature of the data set: Reverse membrane assay: proteins spotted on nitrocellulose probed with six liposomes. It is filed as binding. The note with it: HRP-conjugated streptavidin. As for the experimental part:
B. A reverse assay was carried out to test for protein-lipid interactions. The proteins were prepared and spotted onto nitrocellulose filters in a dilution series and probed with the six different liposomes. As a control, the six liposomes were also added to the BSA-blocked membrane. After extensive washing, the bound liposomes were detected using an HRP-conjugated streptavidin and an ECL kit.
C. Linear correlation between the binding signals and the amounts of Rim15p in a membrane assay. When liposome-binding signals of Rim15p from the membrane assay (FIG. 4B) were plotted against the concentration gradient of the spotted Rim15p, the binding signals of PI(4)P, PI(3,4)P2, PI(3)P, and PI(4,5)P2 correlated linearly with the amounts of Rim15p.
Therefore, six proteins, i.e., Rim15p, Eno2p, Hxk1p, Sps1p, Yg1059wp, and Gcn2p, were further tested for phosphoinositol binding using two types of standard assays (Williamson, 2000, Nat. Struct Biol. 7(10):834-7). For Rim15p, Eno2p, and Hxk1p, PI(4,5)P2 liposomes were first adhered to a nitrocellulose membrane, which was then blocked by BSA; different amounts of the GST fusion proteins and a GST control were used to probe the membrane, and bound proteins were detected using anti-GST antibodies. […] We also carried out the reverse assay for four GST fusion proteins, Rim15p, Sps1p, Yg1059wp, and Gcn2p (Guerra et al., 2000, Biosci. Rep. 20: 41). Different amounts of these purified proteins were spotted onto nitrocellulose filters and probed with the six different liposomes (FIG. 5B). The bound liposomes were detected using a horseradish peroxidase (“HRP”)-conjugated streptavidin.

For another data set, the target named is T1, calmodulin (Homo sapiens, UniProt P0DP23).
T1 construct: purchased CalBiochem, USA
The data set is described as follows: Yeast proteome chip probed with biotinylated calmodulin. In kind it is binding. The note with it: biotinylated calmodulin in the presence of calcium. The text has this:
To test for protein-protein interactions, the yeast proteome was probed with calmodulin (11). Calmodulin is a highly conserved calcium-binding protein involved in many calcium-regulated cellular processes and has many known physical partners (Hook et al., 2001, Annu. Rev. Pharmacol. Toxicol. 41:471). The calmodulin probe was biotinylated, and bound probe was detected using Cy3-labeled streptavidin. As a control, the yeast proteome was probed with Cy3-labeled streptavidin alone.
Generally, protein-protein interactions can be assayed as follows. Blocked proteome chips are washed three to five times in PBS buffer, and the extra liquid on the glass surface is removed by tapping the slides vertically on a KIMWIPE™. 200 ∞l of biotinylated protein probe is added to the proteome chip and immediately covered by a hydrophobic plastic cover slip (GRACE BIO-LABS™, USA). After trapped air bubbles are removed, the chip is incubated in a humidity chamber at room temperature (RT) for one hour. To remove the cover slip, the chip is immersed into large volume of PBS buffer (>50 ml), and the slip should float away. The chip is then moved to a second PBS bath (>50 ml) and washed 3×5 min with shaking at RT. […]

For the substance “SSB1: yeast GST-HisX6 fusion protein on proteome chip”, in data set [1], the PC stood at 12.91. In addition, the “PI(4, 5)P2” value in the data set with PI(4,5)P2 liposomes is recorded as 1.31. For the same substance, in the data set on PI(3,4)P2 liposomes, the “PI(3, 4)P2” value is recorded as 6.28. Moreover, the “PI(3, 4, 5)P3” value in the data set on PI(3,4,5)P3 liposomes is listed as 4.27. The “PI(4)P” value with PI(4)P liposomes was 16.98.
For “GCN2: yeast GST-HisX6 fusion protein on proteome chip”, the PC in data set [1] is 1087.04. The “PI(4, 5)P2” value in the data set on PI(4,5)P2 liposomes is 505.60. Also, the “PI(3, 4)P2” value in the data set on PI(3,4)P2 liposomes was 232.01. In addition, the “PI(3, 4, 5)P3” value in the data set on PI(3,4,5)P3 liposomes amounted to 975.60. In the data set with PI(4)P liposomes, the “PI(4)P” value is 1356.97. In the data set on PI(3)P liposomes, the “PI(3)P” value was found to be 26.50. Moreover, the “liposome binding in reverse membrane assay” value in the data set with six different liposomes was “bound strongest to PI(3)P and PI(4)P and PI(3,4)P2”.
Turning to “Arc35p: component of the Arp2/3 actin-organizing complex”, in the data set with calmodulin, the calmodulin binding entry was “identified”.
The substance “PET9: yeast GST-HisX6 fusion protein on proteome chip” came in with a PC in data set [1] of 14.97. For the same substance, the “PI(4, 5)P2” value in the data set on PI(4,5)P2 liposomes is 26.13. In the data set with PI(3,4)P2 liposomes, the “PI(3, 4)P2” value is reported as −5.81. Besides, in the data set on PI(3,4,5)P3 liposomes, the “PI(3, 4, 5)P3” value turned out to be 17.66.
Regarding “RRP5: yeast GST-HisX6 fusion protein on proteome chip”, in data set [1], the PC turned out to be 58.11. The “PI(4, 5)P2” value in the data set on PI(4,5)P2 liposomes is 73.38. Also, the “PI(3, 4)P2” value with PI(3,4)P2 liposomes came to 22.60. Besides, the “PI(3, 4, 5)P3” value in the data set with PI(3,4,5)P3 liposomes was 21.26. For the same substance, the “PI(4)P” value with PI(4)P liposomes worked out at 60.31.
On to “SDS3: yeast GST-HisX6 fusion protein on proteome chip”, for which the “PI(4, 5)P2” value with PI(4,5)P2 liposomes is listed as 4.35. Also, the “PI(3, 4)P2” value with PI(3,4)P2 liposomes was 3.45. The “PI(3, 4, 5)P3” value with PI(3,4,5)P3 liposomes is 9.67. Moreover, the “PI(4)P” value with PI(4)P liposomes was found to be 11.76.

For the origin of these results see patent US20050182242A1, “Global analysis of protein activities using proteome chips” (priority 2001, published 2005).
